Substitutions are numbered along the chain they refer to.
T1: monkey FcRn (monkey, UniProt Q8SPV9)
T1 chain 1: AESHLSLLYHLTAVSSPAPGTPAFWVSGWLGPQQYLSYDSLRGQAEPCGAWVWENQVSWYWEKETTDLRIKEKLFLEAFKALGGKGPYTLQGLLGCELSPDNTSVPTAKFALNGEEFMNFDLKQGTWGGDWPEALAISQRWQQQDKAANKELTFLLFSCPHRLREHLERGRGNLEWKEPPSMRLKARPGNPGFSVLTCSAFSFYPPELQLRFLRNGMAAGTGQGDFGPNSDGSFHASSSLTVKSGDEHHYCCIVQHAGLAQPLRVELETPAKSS
T1 chain 2: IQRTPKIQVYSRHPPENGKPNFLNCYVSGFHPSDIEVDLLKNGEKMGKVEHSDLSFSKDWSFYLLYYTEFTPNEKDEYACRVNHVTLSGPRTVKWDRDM

T2: mouse FcRn (mouse, UniProt Q61559)
T2 chain 1: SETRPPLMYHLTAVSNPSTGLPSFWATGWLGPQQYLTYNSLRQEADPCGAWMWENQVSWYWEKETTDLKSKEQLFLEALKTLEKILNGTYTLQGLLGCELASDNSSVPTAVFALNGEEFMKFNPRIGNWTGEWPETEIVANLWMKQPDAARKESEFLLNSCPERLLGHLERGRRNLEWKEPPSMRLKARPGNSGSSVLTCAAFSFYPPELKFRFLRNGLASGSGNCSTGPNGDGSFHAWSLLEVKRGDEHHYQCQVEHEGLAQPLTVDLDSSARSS
T2 chain 2: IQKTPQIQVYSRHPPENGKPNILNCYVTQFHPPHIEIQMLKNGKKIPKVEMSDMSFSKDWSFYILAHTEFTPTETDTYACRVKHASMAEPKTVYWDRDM

B1: H11A4.3 (monomer) (protein)
chain: MGWSCIILFLVATATGVHSSDKTHTCPPCPAPEAAGGPSVFLFPPKPKDTLYITREPEVTCVVVDVSHEDPEVKFNWYVDGVEVHNAKTKPREEQYNSTYRVVSVLNPYHQDWLNGKEYKCKVSNKALGAPIEKTISKAKGQPREPQVYTLPPSREEMTKNQVSLTCLVKGFYPSDIAVEWESNGQPENNYKTTPPVLDSDGSFFLYSKLTVDKSRWQQGNVFSCSVMHEALRWHYTQKSLSLSPGK
B2: H11A4.1 (Monomer) (protein)
chain: B1 chain with Y52M, T54S, E56T
B3: H11A4.2 (monomer) (protein)
chain: B1 chain with A34L, A35L, G129P, E156D, M158L
B4: A3 H11A4.3 (mAb) (antibody)
chain 1: not shown
chain 2: MGWSCIILFLVATATGVHSQSALTQPASVSGSPGQSITISCTGTSSDVGGYNYVSWYQQHPGKAPKLMIYDVSKRPSGVSNRFSGSKSGNTASLTISGLQSEDEADYYCNSLTSISTWVFGGGTKLTVLGQPKANPTVTLFPPSSEELQANKATLVCLISDFYPGAVTVAWKADGSPVKAGVETTKPSKQSNNKYAASSYLSLTPEQWKSHRSYSCQVTHEGSTVEKTVAPTECS
B5: A3 H11A4.1 (mAb) (antibody)
chain 1: not shown
chain 2: B4 chain 2
B6: A3 H11A4.2 (mAb) (antibody)
chain 1: not shown
chain 2: B4 chain 2
B7: B14 H11A4.1 (mAb) (antibody)
chain 1: MGWSCIILFLVATATGVHSQVQLVESGGGLVKPGGSLRLSCAASGFTFSDYYMSWIRQAPGKGLEWVSYITYSGSTIYYADSVKGRFTISRDNAKSSLYLQMNSLRAEDTAVYYCARDRGTTMVPFDYWGQGTLVTVSSASTKGPSVFPLAPSSKSTSGGTAALGCLVKDYFPEPVTVSWNSGALTSGVHTFPAVLQSSGLYSLSSVVTVPSSSLGTQTYICNVNHKPSNTKVDKKVEPKSCDKTHTCPPCPAPEAAGGPSVFLFPPKPKDTLMISRTPEVTCVVVDVSHEDPEVKFNWYVDGVEVHNAKTKPREEQYNSTYRVVSVLNPYHQDWLNGKEYKCKVSNKALGAPIEKTISKAKGQPREPQVYTLPPSREEMTKNQVSLTCLVKGFYPSDIAVEWESNGQPENNYKTTPPVLDSDGSFFLYSKLTVDKSRWQQGNVFSCSVMHEALRWHYTQKSLSLSPGK
chain 2: not shown
B8: B14 H11A4.3 (mAb) (antibody)
chain 1: B7 chain 1 with M274Y, S276T, T278E
chain 2: not shown
B9: W11A4.1 (Dimer) (protein)
chain: MGWSCIILFLVATATGVHSSDKTHTCPPCPAPEAAGGPSVFLFPPKPKDTLMISRTPEVTCVVVDVSHEDPEVKFNWYVDGVEVHNAKTKPREEQYNSTYRVVSVLNPYHQDWLNGKEYKCKVSNKALGAPIEKTISKAKGQPREPQVYTLPPSRDELTKNQVSLTCLVKGFYPSDIAVEWESNGQPENNYKTTPPVLDSDGSFFLYSKLTVDKSRWQQGNVFSCSVMHEALRWHYTQKSLSLSPGKGGGSGGGSGGGSGGGSSGGGSSSDKTHTSPPSPAPEAAGGPSVFLFPPKPKDTLMISRTPEVTCVVVDVSHEDPEVKFNWYVDGVEVHNAKTKPREEQYNSTYRVVSVLNPYHQDWLNGKEYKCKVSNKALGAPIEKTISKAKGQPREPQVYTLPPSRDELTKNQVSLTCLVKGFYPSDIAVEWESNGQPENNYKTTPPVLDSDGSFFLYSKLTVDKSRWQQGNVFSCSVMHEALRWHYTQKSLSLSPGK
B10: B14 H11A4.2 (mAb) (antibody)
chain 1: B7 chain 1 with A256L, A257L, M274Y, S276T, T278E, G351P
chain 2: not shown

Molecular target: T1, monkey FcRn
Experiment: SPR, pH 6.0, 25C

| Kd | Binder |
| --- | --- |
| 1.38 nM | B1 |
| 0.928 nM | B2 |
| 0.592 nM | B3 |
| 3.76 nM | B4 |
| 3.13 nM | B5 |
| 0.914 nM | B6 |
| 4.26 nM | B7 |
| 2.45 nM | B8 |

These binders were tested against T3, human FcRn (human, UniProt P55899) (assay: SPR, pH 6.0, 25C).

| Kd | Binder |
| --- | --- |
| 0.288 nM | B1 |
| 0.7 nM | B2 |
| 0.292 nM | B3 |
| 0.803 nM | B4 |
| 2.6 nM | B5 |
| 1.04 nM | B6 |
| 3.3 nM | B7 |
| 1.23 nM | B8 |

Molecular target: T3, human FcRn
Experiment: SPR, pH 6.0, 25C
Remark: another data set of the same source

| Kd | Binder |
| --- | --- |
| 0.288 nM | B1 |
| 0.559 nM | B2 |
| 0.292 nM | B3 |
| 0.803 nM | B4 |
| 1.93 nM | B5 |
| 1.04 nM | B6 |
| 1.68 nM | B9 |
| 2.85 nM | B7 |
| 1.74 nM | B10 |
| 1.23 nM | B8 |

Molecular target: T2, mouse FcRn
Experiment: SPR, pH 6.0, 25C

| Kd | Binder |
| --- | --- |
| 0.839 nM | B1 |
| 0.0918 nM | B2 |
| 0.0556 nM | B3 |
| 2.57 nM | B4 |
| 0.165 nM | B5 |
| 0.113 nM | B6 |
| 0.189 nM | B7 |
| 0.782 nM | B8 |

These binders were tested against T3, human FcRn (assay: SPR, pH 7.4, 25C).

| Kd | Binder |
| --- | --- |
| 7.62 nM | B1 |
| 15.2 nM | B2 |
| 3.51 nM | B3 |
| 18.8 nM | B4 |
| 29.6 nM | B5 |
| 11.2 nM | B6 |
| 34.1 nM | B7 |
| 15.1 nM | B8 |

Reference: patent US20260374875 (published 2026)
